Measured values taken from the RNAGym collection of RNA variant scans (doi:10.1093/nar/gkz1192).

B1: CPEB3 Ribozyme (parent)
chain: UAACAGGGGGCCACAGCAGAAGCGUUCACGUCGCAGCCCCUGUCAGAUUCUGGUGAAUCUGCGAAUUCUGCUGUAUAUCUC

Variants of: B1
Assay: self-cleavage, relative activity (ratio to wild type); higher = more cleavage; in vitro, sequencing
Method in brief: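 CPEB3 self-cleaving ribozyme mutant libraries were made by rounds of error-prone PCR, barcoded, and transcribed in vitro with T7 RNA polymerase for 5 hours at 37°C. Cleavage occurred during transcription and a 15 min DNase I step before EDTA stop. RNAs were reverse transcribed with template switching and Illumina-sequenced, with DNA sequencing mapping barcodes to variants. Relative activity is the variant's cleaved/total read fraction divided by wild type's (minimum 5 reads), averaged across three batches.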

Variant	self-cleavage
G36U C59U	0.16
A35U U67G	0.35
A35U U67A	0.24
A35U U67C	0.21
G36A U69C	0.27
G36A U69A	0.32
G36A A57G	0.17
G36U G42A	0.21
G36A C71U	0.15
G36C A45G	0.17
G36C A45U	0.14
G36C U60C	0.13
G36C U60A	0.08
G36C C38U	0.27
G36C C38A	0.16
G36U A57G	0.48
G36U A45U	0.19
G36U A45G	0.22
G36U U67A	0.64
G36C G55A	0.12
A35U U74A	0.89
A35U U74C	0.86
G36A G61C	0.16
A35U G55U	0.43

Variant	self-cleavage
A35U G55C	0.47
G36U A77U	0.19
G36U A77G	0.12
A35U U80C	0.63
A35U U80G	0.65
A35U U80A	0.58
A35U U49C	0.27
A35U U49A	0.39
G36U G61U	0.13
G36C U80A	0.12
G36C U80C	0.13
A35U U60A	0.25
A35U U60C	0.24
A35U U60G	0.17
G36A	0.29
G36U	0.24
G36C	0.31
G36A U66C	0.33
G36A A65G	0.17
G36C C62U	0.15
G36A A64G	0.15
G36A A64U	0.14
G36C A65G	0.13
G36U U69A	0.2

Variant	self-cleavage
G36U U69C	0.15
G36C U48C	0.4
G36C A47G	0.15
G36C A47C	0.13
G36A U60A	0.18
G36A U60C	0.13
A35U U58G	0.15
A35U U58C	0.27
A35U U58A	0.32
G36U U54C	0.26
G36U U58C	0.53
G36U C37U	0.1
A35U U41C	0.5
A35U U41G	0.32
A35U U41A	0.3
G36C U78C	0.14
A35U G63A	0.27
A35U G63C	0.45
A35U G63U	0.52
G36A U48C	0.19
G36A C59U	0.31
G36A U54C	0.25
G36A U54A	0.31
G36C A77G	0.29

Variant	self-cleavage
G36C U72G	0.19
A35U U78C	0.52
A35U U78A	0.54
A35U U51A	0.56
A35U U51G	0.47
A35U U51C	0.46
G36A A45G	0.21
G36A A45U	0.27
G36U U51G	0.15
G36U U48C	0.17
G36U A75G	0.11
G36A A75U	0.36
G36A A75C	0.28
G36C U58C	0.14
A35U U48A	0.32
A35U U48C	0.32
A35U U48G	0.26
G36C U43C	0.28
A35U U76A	0.65
A35U U76C	0.52
G36A U72A	0.26
G36A U72C	0.25
G36A G42U	0.13
G36A A47G	0.34

Variant	self-cleavage
G36A A47U	0.13
G36A U76C	0.28
G36A U76G	0.4
G36C U51C	0.39
G36C U51A	0.16
G36A C44G	0.14
G36A U43C	0.29
A35U U69C	0.23
A35U U69G	0.26
A35U U69A	0.26
G36A U80C	0.34
G36A U80A	0.13
G36A C50A	0.25
G36C U74C	0.2
A35U U72A	0.31
A35U U72G	0.54
A35U U72C	0.54
G36A U58A	0.13
G36A U58G	0.19
G36A U58C	0.27
G36C G61U	0.12
G36C G61C	0.14
G36A A77C	0.48
G36A A77G	0.17

Variant	self-cleavage
G36U U72C	0.13
G36U G73A	0.37
G36C U49A	0.17
G36U G63A	0.12
G36U G63U	0.12
A35U G61U	0.42
A35U G61A	0.27
G36U A65U	0.06
G36U A65G	0.39
A35U U43A	0.71
A35U U43G	0.15
A35U U43C	0.35
A35U G70C	0.34
A35U G70A	0.2
G36U U41C	0.3
G36U U41A	0.29
G36U C71U	0.1
G36C U69C	0.11
G36A C62A	0.41
G36U A47U	0.08
G36U A47G	0.11
G36A G55A	0.09
G36U U74C	0.31
G36A A56G	0.19

Variant	self-cleavage
A35U U66C	0.25
A35U U66G	0.13
A35U U66A	0.34
A35U U54C	0.5
A35U U54A	0.55
A35U U54G	0.58
G36A C39G	0.16
G36C U67C	0.18
G36C A57U	0.13
A35U G73A	0.88
G36C A64G	0.16
G36A U41C	0.56
G36A U41A	0.18
G36A U67C	0.13
G36U U60C	0.11
G36A U78C	0.23
G36C U66C	0.23
G36A U49C	0.21
G36A U51C	0.2
G36A U51A	0.4
G36A U51G	0.19
G36C A56U	0.13
G36C A56G	0.21
